Laboratory results from patent US20200199217A1 (published 2020).
Residue numbers refer to the chain shown, from its start. Each block holds one binder with its values, some of them ahead of it.

Columns and labels:
Assay in all cases: cell-based or functional assay
[1] = target: T1, hu-IL-36β (human)
T1 chain: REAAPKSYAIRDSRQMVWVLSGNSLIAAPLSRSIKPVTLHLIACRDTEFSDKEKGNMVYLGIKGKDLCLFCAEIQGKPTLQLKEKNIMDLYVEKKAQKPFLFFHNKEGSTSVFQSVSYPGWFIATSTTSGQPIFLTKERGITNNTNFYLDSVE

[2] = target: T1, hu-IL-36β
[3] = target: T2, hu-IL-36α (human, UniProt Q9UHA7 6-158)
T2 sequence: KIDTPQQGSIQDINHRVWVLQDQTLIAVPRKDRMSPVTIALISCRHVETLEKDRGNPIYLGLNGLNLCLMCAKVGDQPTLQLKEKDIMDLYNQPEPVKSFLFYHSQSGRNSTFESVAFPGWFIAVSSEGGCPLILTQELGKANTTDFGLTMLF

[4] = target: T1, hu-IL-36β
[5] = target: T3, hu-IL-36γ (human, UniProt Q9NZH8 18-169)
T3 sequence: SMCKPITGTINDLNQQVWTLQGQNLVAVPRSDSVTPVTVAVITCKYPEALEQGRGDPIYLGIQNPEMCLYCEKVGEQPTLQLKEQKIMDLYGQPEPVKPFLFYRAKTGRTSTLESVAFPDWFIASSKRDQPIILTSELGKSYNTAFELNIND

[6] = target: T2, hu-IL-36α; remark: listed apart in the source
[7] = target: T3, hu-IL-36γ; remark: listed apart in the source
[8] = target: T2, hu-IL-36α; remark: listed apart in the source
[9] = target: T3, hu-IL-36γ; remark: listed apart in the source

B3: anti-IL-36 multispecific antibody mAb2.10/mAb6_2.7 (bispecific antibody, human IgG1, lambda, N297G)
heavy 1: not shown
heavy 2: not shown
light: ESVLTQPPSVSGAPGQRVTISCTGSSSNIGAHYDVHWYQQLPGTAPKLLIYGNDNRPSGVPDRFSGSKSGTSASLAITGLQAEDEADYYCQSYDYSLSGYVFGGGTKLTVLGQPKAAPSVTLFPPSSEELQANKATLVCLISDFYPGAVTVAWKADSSPVKAGVETTTPSKQSNNKYAASSYLSLTPEQWKSHKSYSCQVTHEGSTVEKTVAPTECS
percent of IL-8 production in HaCat cells inhibited at 8 nM antibody [3]: 100%
percent of IL-8 production in primary human adult keratinocytes inhibited at 8 nM antibody [3]: 100%
percent of IL-8 production in HaCat cells inhibited at 8 nM antibody [4]: 100%
percent of IL-8 production in primary human adult keratinocytes inhibited at 8 nM antibody [4]: 100%
percent of IL-8 production in HaCat cells inhibited at 8 nM antibody [5]: 100%
percent of IL-8 production in primary human adult keratinocytes inhibited at 8 nM antibody [5]: 100%

B6: mAb1.0 Fab (Fab, V domains shown)
VH: QVQLVESGGGVVQPGRSLRLSCAASGFSFSAYAMHWVRQAPGKGLEWVAVISYDGTNEYYADSVKGRFTISRDNSKNTLYLQMNSLRAEDTAVYYCARGIRIFTSYFDSWGQGTLVTVSS
VL: QSVLTQPPSVSGAPGQRVTISCTGSSSNIGAHYDVHWYQQLPGTAPKLLIYSNNNRPSGVPDRFSGSKSGTSASLAITGLQAEDEADYYCQSYDYSLRGYVFGGGTKLTVL
% Inhibition, HEK Blue SEAP reporter assay [6]: 70%
% Inhibition, HEK Blue SEAP reporter assay [7]: 31%

B7: mAb3.0 Fab (Fab, V domains shown)
VH: QLQLQESGPGLVKPSETLSLTCTVSGGSISSTSYYWGWIRQPPGKGLEWIGSIHYSGNTYYNPSLKSRVTISVDTSKNQFSLKLSSVTAADTAVYYCARVHYGGYIPRRFDHWGQGTLVTVSS
VL: B6 VL with H32G, S52G, N54T
% Inhibition, HEK Blue SEAP reporter assay [6]: 40%
% Inhibition, HEK Blue SEAP reporter assay [7]: 64%

B8: mAb5.0 Fab (Fab, V domains shown)
VH: EVQLLESGGGLVQPGGSLRLSCAASGFTFSTYAMSWVRQAPGKGLEWVSGISGGSGYTYYADSVKGRFTISRDNSKNTLYLQMNSLRAEDTAVYYCARVVTYRDPPASFDYWGQGTLVTVSS
VL: B6 VL with S52G, N54D, R98K, G99A
% Inhibition, HEK Blue SEAP reporter assay [6]: 75%
% Inhibition, HEK Blue SEAP reporter assay [7]: 75%

B9: mAb5.0 IgG (antibody, V domains shown)
VH: B8 VH
VL: B6 VL with S52G, N54D, R98K, G99A
IC50, HEK Blue SEAP reporter assay [8]: 95 nM
IC50, HEK Blue SEAP reporter assay [9]: 142 nM

B10: mAb4.0 Fab (Fab, V domains shown)
VH: QLQLQESGPGLVKPSETLSLTCTVSGGSIGSRSYYWGWIRQPPGKGLEWIGSIHYSGTTYYNPSLKSRVTISVDTSKNQFSLKLSSVTAADTAVYYCARVAPSYPRVFDYWGQGTLVTVSS
VL: B6 VL with H32G, S52G, N54R, G99V
% Inhibition, HEK Blue SEAP reporter assay [6]: 91%
% Inhibition, HEK Blue SEAP reporter assay [7]: 57%

B11: mAb1.0 IgG (antibody, V domains shown)
VH: B6 VH
VL: B6 VL
IC50, HEK Blue SEAP reporter assay [8]: 43 nM
IC50, HEK Blue SEAP reporter assay [9]: 5.3 nM

B12: mAb4.0 IgG (antibody, V domains shown)
VH: B10 VH
VL: B6 VL with H32G, S52G, N54R, G99V
IC50, HEK Blue SEAP reporter assay [8]: 16 nM
IC50, HEK Blue SEAP reporter assay [9]: 52 nM

B13: mAb3.0 IgG (antibody, V domains shown)
VH: B7 VH
VL: B6 VL with H32G, S52G, N54T
IC50, HEK Blue SEAP reporter assay [8]: 90 nM
IC50, HEK Blue SEAP reporter assay [9]: 30 nM

B14: mAb2.0 Fab (Fab, V domains shown)
VH: B7 VH with S31T, T32S, H54Y, S56T, H101R, G104V, Y105G, I106V, R109Y, H112P
VL: B6 VL with S52G, N54D, R98S
% Inhibition, HEK Blue SEAP reporter assay [6]: 91%
% Inhibition, HEK Blue SEAP reporter assay [7]: 89%

More lines, now with the values ahead:

% Inhibition, HEK Blue SEAP reporter assay [1]: 84%
B1: mAb7.0 Fab (Fab, V domains shown)
VH: QVQLVESGGGVVQPGRSLRLSCAASGFTFSSYGMHWVRQAPGKGLEWVAVISYGGSERYYADSVKGRFTISRDNSKNTLYLQMNSLRAEDTAVYYCAREPWYSSRGWTGYGFDVWGQGTLVTVSS
VL: EIVLTQSPGTLSLSPGERATLSCRASQSVSSNYLAWYQQKPGQAPKLLIYSASSLQSGVPSRFSGSGSGTDFTLTISSLQPEDFATYYCQQTYSYPPTFGQGTKVEIK

IC50, HEK Blue SEAP reporter assay [2]: 1.4 nM
B2: mAb7.0 IgG (antibody, V domains shown)
VH: B1 VH
VL: B1 VL

% Inhibition, HEK Blue SEAP reporter assay [1]: 85%
B4: mAb8.0 Fab (Fab, V domains shown)
VH: QVQLVQSGAEVKKPGSSVKVSCKASGGTFSNYAISWVRQAPGQGLEWMGGILPILGTVDYAQKFQGRVTITADESTSTAYMELSSLRSEDTAVYYCAREPWYRLGAFDVWGQGTLVTVSS
VL: DIQMTQSPSSLSASVGDRVTITCRASQTIYKYLNWYQQKPGKAPKLLIYAASSLQSGVPSRFSGSGSGTDFTLTISSLQPEDFATYYCQQYSSIPYTFGQGTKVEIK

IC50, HEK Blue SEAP reporter assay [2]: 0.34 nM
B5: mAb8.0 IgG (antibody, V domains shown)
VH: B4 VH
VL: B4 VL

% Inhibition, HEK Blue SEAP reporter assay [1]: 86%
B15: mAb6.0 Fab (Fab, V domains shown)
VH: QLQLQESGPGLVKPSETLSLTCTVSGGSITSSNYYWGWIRQPPGKGLEWIGSIDYTGSTYYNPSLKSRVTISVDTSKNQFSLKLSSVTAADTAVYYCARGKYYETYLGFDVWGQGTLVTVSS
VL: B6 VL with H32G, S52G, N54T, Y95I, R98S, Y100W

fold lower potency than mAb6.0 IgG, HaCat IL-8 assay [4]: 16 fold
B16: mAb6.0_2.0 IgG (antibody, V domains shown)
VH: B15 VH
VL: QSVLTQPPSVSGAPGQRVTISCTGSSSNIGAHYDVHWYQQLPGTAPKLLIYGNDNRPSGVPDRFSGSKSGTSASLAITGLQAEDEADYYCQSYDYSLSGYVFGGGTKLTVLG
